From patent US20170101466A1 (published 2017)

Assays:
soluble mouse BLyS [1] = molecular target: T1, soluble mouse BLyS (mouse, UniProt Q9WU72 127-309); assay: Biacore T100, binder captured by anti-human Fc, BLyS injected, 1:1 model
T1 construct: europium-labelled in DELFIA; also called mBLyS; mouse BAFF (BLyS)
Description: (§1) A Series S CM5 Chip (GE Healthcare) was amine coupled with an anti-human Fc capturing antibody (GE Healthcare Human Fc Kit) to >10,000 RUs. Sample antibodies were diluted in 1×HBS-EP+ running buffer to 0.15 ug/mL and injected for 45 seconds at 10 uL/min. […] Biacore Evaluation software was used to fit the data to a 1:1 Binding Model.

soluble mouse BLyS [2] = molecular target: T1, soluble mouse BLyS; assay: ELISA, soluble mBLyS
soluble human BLyS [3] = molecular target: T2, soluble human BLyS (human, UniProt Q9Y275 134-285); assay: blocking of biotinylated soluble hBLyS binding to immobilized mBR3
T2 construct: also called hBLyS; human BAFF (BLyS)

soluble human BLyS [4] = molecular target: T2, soluble human BLyS; assay: Biacore T100, binder captured by anti-human Fc, BLyS injected, 1:1 model
Description: as §1

soluble human BLyS [5] = molecular target: T2, soluble human BLyS; assay: ELISA, soluble hBLyS

Kd (soluble mouse BLyS [1])	koff (soluble mouse BLyS [1])	kon (soluble mouse BLyS [1])	binding result (soluble mouse BLyS [2])	IC50 (soluble human BLyS [3])	Binder	further results
0.105 nM	6.5e-05 s⁻¹	621000 M⁻¹ s⁻¹	–	–	human TACI (R&D Systems receptor chimera) (receptor, UniProt O14836 2-166, looked up, not shown: a dimerising Fc or GST, also called hTACI; TACI rec Human) SGLGRSRRGGRSRVDQEERFPQGLWTGVAMRSCPEEQYWDPLLGTCMSCKTICNHQSQRTCAAFCRSLSCRKEQGKFYDHLLRDCISCASICGQHPKQCAYFCENKLRSPVNLPPELRRQRSGEVENNSDNSGRYQGLEHRGSEASPALPGLKLSADQVALVYST	–
–	–	–	no binding	> 100 nM	2C5 IgG expressed in HEK293 cells (antibody, V domains shown, IgG from HEK293-FreeStyle cells) VH: QVQLVQSGAEVKKPGASVKVSCKASGYTFTGYYIHWVRQAPGQGLEWMGWINPSSGGTNYAQKFQGRVTMTRDTSASTAFMSLSSLRSEDTAVYYCARSYYDILTGYSRNPFDNWGQGTPVTVSS VL: not shown	–
–	–	–	no binding	–	10B1 IgG expressed in HEK293 cells (antibody, V domains shown, IgG from HEK293-FreeStyle cells) VH: EVQLVESGAEVKKPGASVKVSCKASGYTFTSYGISWVRQAPGQGLEWMGWISAYNGNTNYAQKLQGRVTMTTDTSTSTAYMELRSLRSDDTAVYYCARADYDILTGYPRGPVDYWGQGTLVTVSS VL: QSALTQPPSASGSPGQSVTISCTGTSSDVGHYNYVSWYQQHPGKAPKLIIFDVSDRPSGVSNRFSGSKSGNTASLTISGLQAEDEANYYCSSYTSRNTLIFGGGTKLTVLG	–
–	–	–	no binding	> 100 nM	1D6 IgG expressed in HEK293 cells (antibody, V domains shown, IgG from HEK293-FreeStyle cells) VH: QVTLKESGPTLVKPTQTLTLTCTFSGFSLSTDGVGVGWIRQPPGKALEWLALIYGDDDKRYSPSLKSRLTITKDTSKNQVVLTMTNMDPVDTATYYCAHSISNYDILTGHWIAKTYDYWGQGTLVTVSS VL: QSALTQPPSASGSPGQSVSISCIGSRSDIGYYNYVSWYQQHPGEAPKLIIFDVSKRPSGVPDRFSGSKSGNTASLTVSGLQPEDEADYYCASYGGRNNLLFGGGTQLTVLG	–

Further lines, the binder ahead of its results:

Binder	Kd (soluble mouse BLyS [1])	koff (soluble mouse BLyS [1])	kon (soluble mouse BLyS [1])	binding result (soluble mouse BLyS [2])	IC50 (soluble human BLyS [3])	further results
6F5 IgG expressed in HEK293 cells (antibody, V domains shown, IgG from HEK293-FreeStyle cells) VH: EVQLVQSGAEVKKPGSSVKVSCKASGGTFSSYAISWVRQAPGQGLEWMGGISAYKGNTNYAQKLQGRVTMTTDTSTSTAYMELRSLRSEDTAVYYCARGRLAEYDILTGYYFNTWAFDIWGQGTMVTVSS VL: QSALTQPASVSGSPGQSITISCTGTSSDVGGYNYVSWYQQHPGKAPKLMIYDVSKRPSGVSNRFSGSKSGNTASLTISGLQAEDEADYYCSSYTSSSTPVLFGGGTKLTVLG	–	–	–	–	> 100 nM	–
6A11 IgG1 F243A/V264A double mutein expressed in Pichia pastoris (antibody, V domains shown, IgG1 F243A/V264A (EU) double mutein, alpha-2,6-sialylated, from glycoengineered Pichia pastoris; also called 6A11 (D132943)) VH: QIQLVQSGTEVKKPGASVKVSCKASGYTFTDYYMHWVRQAPGQGLEWMGRINPNSGGTNYAQKFQGRVTMTRDTSISTAYMELSRLRSDDTFVYYCAREGYDFLTGYTLGGMDVWGQGTTVTVSS VL: not shown	0.121 nM	0.000177 s⁻¹	1.47e+06 M⁻¹ s⁻¹	–	–	Kd (soluble human BLyS [4]): 0.905 nM; koff (soluble human BLyS [4]): 0.000174 s⁻¹; kon (soluble human BLyS [4]): 192000 M⁻¹ s⁻¹
5G10 IgG1 F243A/V264A double mutein expressed in Pichia pastoris (antibody, V domains shown, IgG1 F243A/V264A (EU) double mutein, alpha-2,6-sialylated, from glycoengineered Pichia pastoris; also called 5G10 (D132947)) VH: QMQLVQSGAEVKKPGASVKVSCKASGYTFTSYAMHWVRQAPGQRLEWMGWINAGNGNTKYSQKFQGRVTITRDTSASTAYMELSSLRSEDTAVYYCAREMAVAGTYYYYGMDVWGQGTTVTVSS VL: DIQLTQSPSTLSASVGDRVTITCRASQSISGWLAWYQQKPGRAPKLLIYKASSLESGVPSRFSGSGSGTDFTLTISSLQPEDIATYYCQQFDNLLLMYTFGQGTKLEIRR	0.732 nM	0.000451 s⁻¹	616000 M⁻¹ s⁻¹	–	–	–
5G10 IgG expressed in HEK293 cells (antibody, V domains shown, IgG from HEK293-FreeStyle cells) VH: QMQLVQSGAEVKKPGASVKVSCKASGYTFTSYAMHWVRQAPGQRLEWMGWINAGNGNTKYSQKFQGRVTITRDTSASTAYMELSSLRSEDTAVYYCAREMAVAGTYYYYGMDVWGQGTTVTVSS VL: DIQLTQSPSTLSASVGDRVTITCRASQSISGWLAWYQQKPGRAPKLLIYKASSLESGVPSRFSGSGSGTDFTLTISSLQPEDIATYYCQQFDNLLLMYTFGQGTKLEIRR	–	–	–	–	–	IC50 (soluble mouse BLyS [2]): 51 nM
1B5 IgG expressed in HEK293 cells (antibody, V domains shown, IgG from HEK293-FreeStyle cells) VH: QVQLQESGPGLVEPSETLSLTCTVSGGSISGRNYYWGWIRQSTGKGLEWIGSIYYSGSTYYNPSLKSRVTISVDTSKNQFSLKLSSVTAADTAVYYCARDLANYDILTGYYRARGAFDIWGQGTMVTVSS VL: QSALTQPASVSGSPGQSITISCTGTSSDVGGYNYVSWYQQHPGKAPKLMIYDVNKRPSGVPDRFSGSKSANTASLTVSGLQAEDEADYYCSSYTAGGNWVFGGGTKLTVLG	–	–	–	–	21 nM	IC50 (soluble mouse BLyS [2]): 17 nM; IC50 (soluble human BLyS [5]): 15 nM
